Test results published in article PMC2667941.
Like-named read-outs stand apart in the source and are kept apart here.

Columns and labels:
human alpha-thrombin [1] = molecular target: T1, human alpha-thrombin (Homo sapiens, UniProt P00734;P00734 328-363;364-622); test: gel filtration chromatography
human alpha-thrombin [2] = molecular target: T1, human alpha-thrombin; test: gel filtration chromatography; remark: listed apart in the source

| Binder | binding result (human alpha-thrombin [1]) | binding result (human alpha-thrombin [2]) |
| --- | --- | --- |
| TCCGCTGCAGAAAAATCGGGCGTAC (ssDNA, 9 phosphorothioate linkages, between the last 10 nt (T*C*G*G*G*C*G*T*A*C); rest phosphodiester) [ps-po-X on CdTe (same sequence as ps-po)] | no binding |  |
| GGTTGGTGTGGTTGGAAAAATCGGGCGTAC (structured_DNA, 9 phosphorothioate linkages, between the last 10 nt (T*C*G*G*G*C*G*T*A*C); rest phosphodiester) [ps-po-TBA on CdTe] |  | binds |
